Patent US20150329606A1 (COMMISSARIAT A L ENERGIE ATOMIQUE ET AUX ENERGIES …, published 2015)

Target: T1, C1q derived from serum (human, UniProt P02745 23-245; P02746 28-253; P02747 29-245)
T1 construct: mature; Native C1q from serum, the comparator in SPR; The SPR paragraph says only 'serum C1q'; also called serC1q; serum C1q
Assay: SPR, C1q immobilized on CM5 chip, tetramer injected at 1-24 nM

T1 sequence (P02745 23-245, chain 1 of 3): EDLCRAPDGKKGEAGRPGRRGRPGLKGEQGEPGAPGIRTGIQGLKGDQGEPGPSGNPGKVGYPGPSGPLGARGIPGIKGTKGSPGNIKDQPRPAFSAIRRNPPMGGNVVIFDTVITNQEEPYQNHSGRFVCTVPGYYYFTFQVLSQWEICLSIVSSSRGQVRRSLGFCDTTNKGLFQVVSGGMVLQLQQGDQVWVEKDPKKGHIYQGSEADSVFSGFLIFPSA
T1 sequence (P02746 28-253, chain 2 of 3): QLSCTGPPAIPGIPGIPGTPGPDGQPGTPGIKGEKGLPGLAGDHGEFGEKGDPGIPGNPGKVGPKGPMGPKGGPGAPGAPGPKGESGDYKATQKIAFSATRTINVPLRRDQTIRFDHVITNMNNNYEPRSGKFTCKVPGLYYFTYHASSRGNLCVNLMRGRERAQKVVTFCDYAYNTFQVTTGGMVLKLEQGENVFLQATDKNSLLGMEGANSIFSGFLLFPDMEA
T1 sequence (P02747 29-245, chain 3 of 3): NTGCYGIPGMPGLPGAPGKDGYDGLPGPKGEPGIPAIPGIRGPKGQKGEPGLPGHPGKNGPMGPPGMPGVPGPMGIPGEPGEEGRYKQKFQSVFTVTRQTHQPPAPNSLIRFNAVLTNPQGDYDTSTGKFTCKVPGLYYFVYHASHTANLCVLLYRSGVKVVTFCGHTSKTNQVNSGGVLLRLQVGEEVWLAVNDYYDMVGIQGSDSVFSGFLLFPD

B1: C1s-C1r-C1r-C1s tetramer (enzyme)
chain 1: SIPIPQKLFGEVTSPLFPKPYPNNFETTTVITVPTGYRVKLVFQQFDLEPSEGCFYDYVKISADKKSLGRFCGQLGSPLGNPPGKKEFMSQGNKMLLTFHTDFSNEENGTIMFYKGFLAYYQAVDLDECASRSKSGEEDPQPQCQHLCHNYVGGYFCSCRPGYELQEDTHSCQAECSSELYTEASGYISSLEYPRSYPPDLRCNYSIRVERGLTLHLKFLEPFDIDDHQQVHCPYDQLQIYANGKNIGEFCGKQRPPDLDTSSNAVDLLFFTDESGDSRGWKLRYTTEIIKCPQPKTLDEFTIIQNLQPQYQFRDYFIATCKQGYQLIEGNQVLHSFTAVCQDDGTWHRAMPRCKIKDCGQPRNLPNGDFRYTTTMGVNTYKARIQYYCHEPYYKMQTRAGSRESEQGVYTCTAQGIWKNEQKGEKIPRCLPVCGKPVNPVEQRQRIIGGQKAKMGNFPWQVFTNIHGRGGGALLGDRWILTAAHTLYPKEHEAQSNASLDVFLGHTNVEELMKLGNHPIRRVSVHPDYRQDESYNFEGDIALLELENSVTLGPNLLPICLPDNDTFYDLGLMGYVSGFGVMEEKIAHDLRFVRLPVANPQACENWLRGKNRMDVFSQNMFCAGHPSLKQDACQGDSGGVFAVRDPNTDRWVATGIVSWGIGCSRGYGFYTKVLNYVDWIKKEMEEED
chain 2: EPTMYGEILSPNYPQAYPSEVEKSWDIEVPEGYGIHLYFTHLDIELSENCAYDSVQIISGDTEEGRLCGQRSSNNPHSPIVEEFQVPYNKLQVIFKSDFSNEERFTGFAAYYVATDINECTDFVDVPCSHFCNNFIGGYFCSCPPEYFLHDDMKNCGVNCSGDVFTALIGEIASPNYPKPYPENSRCEYQIRLEKGFQVVVTLRREDFDVEAADSAGNCLDSLVFVAGDRQFGPYCGHGFPGPLNIETKSNALDIIFQTDLTGQKKGWKLRYHGDPMPCPKEDTPNSVWEPAKAKYVFRDVVQITCLDGFEVVEGRVGATSFYSTCQSNGKWSNSKLKCQPVDCGIPESIENGKVEDPESTLFGSVIRYTCEEPYYYMENGGGGEYHCAGNGSWVNEVLGPELPKCVPVCGVPREPFEEKQRIIGGSDADIKNFPWQVFFDNPWAGGALINEYWVLTAAHVVEGNREPTMYVGSTSVQTSRLAKSKMLTPEHVFIHPGWKLLEVPEGRTNFDNDIALVRLKDPVKMGPTVSPICLPGTSSDYNLMDGDLGLISGWGRTEKRDRAVRLKAARLPVAPLRKCKEVKVEKPTADAEAYVFTPNMICAGGEKGMDSCKGDSGGAFAVQDPNDKTKFYAAGLVSWGPQCGTYGLYTRVKNYVDWIMKTMQENSTPRED
notes: also called C1s-C1r-C1r-C1s proenzyme tetramer;2-C1s2
  Kd: 3.12 nM
  koff: 0.00212 s⁻¹
  kon: 681000 M⁻¹ s⁻¹
